Among the data in patent publication WO2006046344A1 (dated 2006) are Kd values, retold here.

For one assay, the target named is bovine α form prion (bovine, UniProt P10279 102-241).
For the next assay, the target named is human α form prion (human, UniProt P04156 90-230).

B1: huPrP-39 (scFv, V domains shown)
VH: EVQLVQSGGGLVQPGRSLRLSCAASGFTFGDYAMSWVRQAPGKGPEWIATISSSGDILDYADSVRGRFSISRDNAQRSLHLQMTSLRPDDSAIYYCAREYFFSFDVWGRGTTVTVSS
VL: QSVLAQPPSLSVSPGQTARITCSGDGVGSGFVSWYQQRPGQSPSVVIYDDAKRPSGIPERFSGSNSGDTATLTISESRAVDEADYYCQTWDSRSPVFGGGTKVTVLG
Regarding B1, the figures for the Kd with bovine α form prion and with human α form prion were 29 nM and 33 nM, respectively.

B2: boPrP-2 (scFv, V domains shown)
VH: QVQLVQSGGGLVQPGRSLRLSCAASGFTFDDYAMHWVRQAPGKGLEWVSGISWNSGSIGYADSVKGRFTISRDNAKNSLYLQMNSLRAEDTALYYCAKGGGSYYYFDYWGQGTLVTVSS
VL: QSVLTQPPSVSGAPGQRVSISCTGNRSNIGAGYDVHWYQQVPGMAPKLLIYGNTKRPSGVPDRFSGSKSGTSASLAITGLQAEDEADYYCQSFDNTLSDSRWVFGGGTKLTVLG
As for B2, the values for the Kd in the assay with bovine α form prion and with human α form prion were 410 nM and 110 nM, respectively.

B3: boPrP-20 (scFv, V domains shown)
VH: QVQLVQSGGGLVQPGRSLRLSCAASGFTFDDYAMHWVRQAPGKGLEWVSGISWNSGSIGYADSVKGRFTISRDNAKNSLYLQMNSLRAEDTALYYCAKQGDEAAAGTGFDYWGQGTLVTVSS
VL: QSVLTQPPSASAAPGQGVTISCSGSSSNIGTNTVAWYQHLPETAPKLLIYHDSQRPSRVPGRVSGSKSGTSASLAISRLQSDDEADYYCATWDDSLNGWVFGGGTKLTVLG
As for B3, in the assay with human α form prion, the Kd (as a rule, the constant that tells how readily two partners part at equilibrium) is 36 nM.

B4: boPrP-15 (scFv)
chain 1: QVQLVQSGAEVKKPGASVKVSCKASGYTFTSYGISWVRQAPGQGLEWMGWISAYNGNTNYAQKLQGRVTMTTDTSTSTAYMELRSLRSDDTAVYYCARYGGRIAAASYNWFDPWGQGTLAICPDSACLRVWVSWTVDHLVTVSS
chain 2: QSALTQPASVSGSPGQSITISCTGTSSDVGGYNYVSWYQQHPGKAPRLMIYDVSNRPSGVSNRFSGSKSGNTASLTISGLQSEDEADYYCSSYTSSSTLVFGTGTKLTVLG
Consider B4, for which the Kd in the assay with bovine α form prion amounted to 4.6 nM; with human α form prion it was 7.8 nM.

B5: huPrP-18 (scFv, V domains shown)
VH: QVQLVQSGAEVKKPGASVKVSCKASGYTFTSYPIHWVRQAPGQRLEWMGWLNPGTGVTKYSQNFQGRVTLTSDTSANTAYLELSSLRSEDTALYYCTRDPLDSRKNWFDPWGQGTLVTVSS
VL: SYVLTQPPSASGTPGQRVTISCSGSNSNIGTNFVYWYQQLPGTAPKLLIYRNNQRPSGVPDRFSGSKSGTSASLAISGLRSEDEADYYCAAWDDSLSGRVFGGGTQLTVLG
Regarding B5, the Kd in the assay with bovine α form prion stood at 60 nM; with human α form prion, 20 nM.
